Substitutions are numbered along the chain they refer to. Values belong to the binder of their own block, whether it stands above or below them.
Molecular target: T1, Recombinant human CD33 protein (human, UniProt P20138 18-259)
T1 construct: Obtained commercially; also called huCD33
Assay: SPR (BIACORE T200), crude sdAb captured via affinity tag, 100 nM human CD33 as analyte
Description: The sdAb proteins in the supernatant were analyzed for their ability to bind to CD33 ECD proteins by ELISA and CD33-overexpressing MV4-11 cell lines by FACS. All binders were sequenced and some were subjected to for further characterization including affinity ranking by surface plasmon resonance (SPR) on a BIACORE® T200 instrument. The experiments were carried out as follows: the crude sdAb proteins were captured through an affinity tag onto the sensorchip. High-concentration (100 nM) of human CD33 flowed over the sensorchip surface, and was allowed to bind the antibody fragments. On-rate (kₒₙ) and off-rate (koff) were roughly calculated based on the association and dissociation of one antigen concentration, and were used to estimate the equilibrium dissociation constant (KD).

T1 sequence (P20138 18-259 limits assumed): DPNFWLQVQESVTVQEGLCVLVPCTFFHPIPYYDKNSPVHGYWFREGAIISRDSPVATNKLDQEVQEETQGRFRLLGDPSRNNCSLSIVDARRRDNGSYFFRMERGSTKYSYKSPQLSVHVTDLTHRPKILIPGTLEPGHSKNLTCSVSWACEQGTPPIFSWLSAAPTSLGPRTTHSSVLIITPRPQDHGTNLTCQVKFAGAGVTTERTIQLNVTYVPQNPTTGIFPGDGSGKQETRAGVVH

B1: AS67147 sdAb (VHH)
VHH: EVQLVESGGGLVQAGGSLRLSCAASGDTFSFAAMGWYRQAPGKQRELVASISFSGGESTVYANSVRGRFTISGDNAKNRVSLEMNNLKPEDTAVYYCTAKRGPYLPGPEYWGQGTQVTVSS
notes: Camel sdAb
binding result: binds

B3: AS67190 sdAb (VHH)
VHH: QVQLVESGGGLVQAGGSLRLSCAASGNVFRFNIMGWYRQAPGNQRELVASIDDGGDRSYADSVEGRFTISRENGKKIMYLQMNSLKPEDTAVYYCAAGLGTYLNGRVSMATNYWGQGTQVTVSS
notes: Camel sdAb
binding result: binds

B4: AS50502 sdAb (VHH)
VHH: EVQLVESGGGSVQAGGSLRLSCAAPGYTYCTYDMMWYRQALGKEREFVSAVYTDGSTLYADSVKGRFTISQDNAKNTLYLQMNSLKPEDTAMYYCKTETAVTYDKPCDFWGQGTQVTVSS
notes: Camel sdAb
binding result: binds

B5: AS58930 sdAb (VHH)
VHH: AVQLVESGGGLVQAGGSLRLSCTASGSILRTYEMGWYRQAPGSQRELVASITSDGDTNYVDSVKGRFTISRDNGKNMVYLQMNSLKPDDTAVYYCNAVILSPSYSMRTSHWGQGTQVTVSS
notes: Camel sdAb; also called AS58930C
binding result: binds

B7: AS49226 sdAb (VHH)
VHH: EVQLAESGGGSVQAGGSLRLSCAASGVTFSSTSVAWFRQAPGKEREGVAYIYTGDSSTYYADSVKGRFTIAQDNAKNAVYLQMNSLKPEDTAMYYCAADGFLLNHRSYQYWGQGTQVTVSS
notes: Camel sdAb
binding result: binds

B8: AS49264 sdAb (VHH)
VHH: EVQLVESGGGSVQAGGSLRLSCAASGYTYSINCMGWFRQAPGKEREGVAVISTGGGRTDYRDSVKGRFTISQDNAKNTVYLQMNSLKPEDTAMYYCAGKTTYPGYGCGLGRSAYNYWGQGTQVTVSS
notes: Camel sdAb
binding result: binds

B9: AS49873 sdAb (VHH)
VHH: EVQLVESGGGSVQAGGSLRLSCVASGYTYGINCMGWFRQAPGKEREGIAAISTGGGTTGVADSVKGRFTISQDNAKNTVYLQMNSLKPEDTAMYYCAARSTYSGYACVYSEVNGYNYRGQGTQVTVSS
notes: Camel sdAb
binding result: binds

B11: AS49175 sdAb (VHH)
VHH: EVQLAESGGGLVQAGGSLRLSCTASGFTFDDYVMGWFRQAPGKEREGVSCISWSGDTTYYADSVKGRFTASRDNAKNTLYLQMNSLKPEDTAMYYCAADQGKCSLASAEPDDMDYWGRGTLVTVSS
notes: Camel sdAb
binding result: binds

B14: AS59101 sdAb (VHH)
VHH: AVQLVESGGGLVQPGGSLRLSCAVSGIYYSINLMGWYRQAPGKPRELAASITDSGITNYADSVKGRFTISRDNAKNTVHLQMNNLKPEDTAVYYCKPMGVNWGQGIQVTVSS
notes: Camel sdAb
binding result: binds

Now from value to binder:

binding result: binds
B2: AS66873 sdAb (VHH)
VHH: QVQLVESGGGLVQPGGSLRLSCAASGSIFSITAMGWYRQAPGKQRELVATVTSGGSTKYVESVKGRFTISNDNAKNTVYLQMNSLKPEDTAVYYCWADIVARWNSDYNVYDDYWGQGTQVTVSS
notes: Camel sdAb

binding result: binds
B6: AS60399 sdAb (VHH)
VHH: QVKLEESGGGLVQEGGSLRLSCAASGTIYTDSTIYWYRQAPGKQRELVASITRGGDTKYVDSVKGRFAISSDNAKNTVYLQMNSLKPEDTAVYYCNLYYRTGPSSYYRNDWGQGTQVTVSS
notes: Camel sdAb

binding result: binds
B10: AS49889 sdAb (VHH)
VHH: EVQLVESGGGSVQAGGSLRLSCVASGYTWCRYDMSWYRQAPGKEREFVSGFDNDGTTSYADSVKGRFTISQDNDKNTVYLQMNSLKPEDTAMYYCKEDRSRGSLDGRVCPLSYDNWGQGTQVTVSS
notes: Camel sdAb

binding result: binds
B12: AS50073 sdAb (VHH)
VHH: B11 VHH with E1Q, A5V, D31N, S52G, D56G, T57S, A70I, A106G, E109G, P110A
notes: Camel sdAb

binding result: binds
B13: AS49814 sdAb (VHH)
VHH: QIQLVESGGGSVQAGGSLRLSCVASGYIGGHYYMGWFRQAPGKEREGVAAIDIDSDGRTRYAGSVQGRFTISQDNAKNTLHLQMSSLKPEDTGMYYCAVGVGWVPARLTPQAVSYWGKGTLVTVSS
notes: Camel sdAb

binding result: binds
B15: AS49902 sdAb (VHH)
VHH: EVQLVESGGGLVQAGGSLRLSCTASGFTFDDYVMGWFRQAPGKEREGVSCISWSGDTTYYADSVKGRFTVSRDNAKNTLYLQMNSLKPEDTAMYYCAADQSLCSLAPPYNYAYWGQGTQVTVSS
notes: Camel sdAb

From patent publication US20210275590A1 (LEGEND BIOTECH IRELAND, published 2021)
